The text below walks through data of article PMC3173232 (The Journal of Biological Chemistry, 2011).

One series addresses full-length XLF (XLF^FL) (human, UniProt Q9H9Q4 1-299). In words: SEC. (In gel filtration, larger molecules generally elute earlier.)
The series “crystal structure” deals with the molecule itself. In words: crystal structure.

B1: XRCC4(1–140) (domain or fragment)
chain: MERKISRIHLVSEPSITHFLQVSWEKTLESGFVITLTDGHSAWTGTVSESEISQEADDMAMEKGKYVGELRKALLSGAGPADVYTFNFSKESCYFFFEKNLKDVSFRLGSFNLEKVENPAEVIRELICYCLDTIAENQAK
Regarding B1, the binding result with full-length XLF (XLF^FL) is “binds”.

B2: XLF(1–224) (domain or fragment)
chain: MEELEQGLLMQPWAWLQLAENSLLAKVFITKQGYALLVSDLQQVWHEQVDTSVVSQRAKELNKRLTAPPAAFLCHLDNLLRPLLKDAAHPSEATFSCDCVADALILRVRSELSGLPFYWNFHCMLASPSLVSQHLIRPLMGMSLALQCQVRELATLLHMKDLEIQDYQESGATLIRDRLKTEPFEENSFLEQFMIEKLPEACSIGDGKPFVMNLQDLYMAVTTQ
For the molecule B2, the binding result in the series “crystal structure” is given as “binds”.
